# Measured values as given in patent US20230134571A1 (INTERNATIONAL AIDS VACCINE INITIATIVE, published 2023).
# Substitutions are numbered along the chain they refer to.
# B1: ePGDM13 (antibody, V domains shown)
# VH: QAQLVQSGPEVRKPGTSVKVSCKNPGNTLTTYDLHWVRQVPGQGLQWMGWISHEGDKKVIVERFKAKVTIDWDRSTNTAYLQLSGLTSEDTAVYYCAKGSKHRLRDYALYDEDGALNWAVDVDYLANLEFWGQGTAVTVSS
# VL: DIVLTQSPLSLSVTPGESASISCKSSHSLQHGDRNNYLAWYVQKPGRSPQLLLDLASERASGVPDRFSGSGSEKDFTLKISRVETEDVGTYYCMQGRESPWTFGQGTKVDIK
# B2: ePGDM5 (antibody, V domains shown)
# VH: B1 VH
# VL: B1 VL with I2F, S26D, L53I, E73R, S81D, T85A
# B3: ePGDM9 (antibody, V domains shown)
# VH: B1 VH
# VL: B1 VL with H27Q, Q30I, L53I, E73R
# B4: PGDM1400 (antibody, V domains shown)
# VH: B1 VH with A2V, Q3H, V5T, N24A, T30K, Q39S, E89G, E112D, A126S
# VL: B1 VL with I2F, L9H, Q30I, L53I, D54Y, E58S, E73D
# B5: ePGDM9 (antibody, V domains shown)
# VH: B1 VH
# VL: B1 VL with H27Q, Q30I, L53I, E73R
# Biological target: HIV Env of isolate ZM249M.PL1 (clade C) (HIV)
# Test: cell-based or functional assay
row,Binder,IC50 (µg/ml) with constrains [µg/mL]
1,B1,0.014
2,B2,0.035
3,B3,0.002
4,B4,0.025

# Biological target: HIV Env of isolate 6952.v1.c20 (clade CD) (HIV)
# Test: cell-based or functional assay
row,Binder,IC50 (µg/ml) with constrains [µg/mL]
1,B1,0.079
2,B2,0.033
3,B3,0.052
4,B4,1.76

# Biological target: HIV Env of isolate 3016.v5.c45 (clade D) (HIV)
# Test: cell-based or functional assay
row,Binder,IC50 (µg/ml) with constrains [µg/mL]
1,B1,> 100
2,B2,> 100
3,B3,> 100
4,B4,> 100

# Biological target: HIV Env of isolate X1193_C1 (clade G) (HIV)
# Test: cell-based or functional assay
row,Binder,IC50 (µg/ml) with constrains [µg/mL]
1,B1,0.095
2,B2,0.039
3,B3,0.039
4,B4,0.094

# Biological target: HIV Env of isolate 6545.v4.c1 (clade AC) (HIV)
# Test: cell-based or functional assay
Binder,IC50 (µg/ml) with constrains [µg/mL],IC80 (µg/ml) with constrains [µg/mL]
B1,0.076,0.305
B2,0.043,0.17
B3,0.041,0.164
B4,0.148,0.594

# Biological target: HIV Env of isolate 620345.c01 (clade AE) (HIV)
# Test: cell-based or functional assay
Binder,IC50 (µg/ml) with constrains [µg/mL],IC80 (µg/ml) with constrains [µg/mL]
B1,> 100,> 100
B2,> 100,> 100
B3,> 100,> 100
B4,> 100,> 100

# Biological target: HIV Env of isolate BJOX010000.06.2 (clade AE) (HIV)
# Test: cell-based or functional assay
Binder,IC50 (µg/ml) with constrains [µg/mL],IC80 (µg/ml) with constrains [µg/mL]
B1,0.979,3.92
B2,0.536,2.15
B3,0.293,1.17
B4,0.871,3.48

# Biological target: HIV Env of isolate CNE5 (clade AE) (HIV)
# Test: cell-based or functional assay
Binder,IC50 (µg/ml) with constrains [µg/mL],IC80 (µg/ml) with constrains [µg/mL]
B1,0.001,0.004
B2,0.001,0.004
B3,0.001,0.003
B4,0.001,0.003

# Biological target: HIV Env of isolate 928-28 (clade AG) (HIV)
# Test: cell-based or functional assay
Binder,IC50 (µg/ml) with constrains [µg/mL],IC80 (µg/ml) with constrains [µg/mL]
B1,0.019,0.077
B2,0.031,0.125
B3,0.027,0.108
B4,0.069,0.277

# Biological target: HIV Env of isolate T211-9 (clade AG) (HIV)
# Test: cell-based or functional assay
Binder,IC50 (µg/ml) with constrains [µg/mL],IC80 (µg/ml) with constrains [µg/mL]
B1,0.028,0.113
B2,0.025,0.099
B3,0.02,0.081
B4,0.058,0.234

# Biological target: HIV Env of isolate T255-34 (clade AG) (HIV)
# Test: cell-based or functional assay
Binder,IC50 (µg/ml) with constrains [µg/mL],IC80 (µg/ml) with constrains [µg/mL]
B1,0.007,0.029
B2,0.018,0.071
B3,0.002,0.008
B4,0.046,0.182

# Biological target: HIV Env of isolate T263-8 (clade AG) (HIV)
# Test: cell-based or functional assay
row,Binder,IC50 (µg/ml) with constrains [µg/mL]
1,B1,0.025
2,B2,0.019
3,B3,0.015
4,B4,0.02

# Biological target: HIV Env of isolate T278-50 (clade AG) (HIV)
# Test: cell-based or functional assay
row,Binder,IC50 (µg/ml) with constrains [µg/mL]
1,B1,1.6
2,B2,1.06
3,B3,0.506
4,B4,5.41

# Biological target: HIV Env of isolate 6240_08_TA5_4622 (clade B) (HIV)
# Test: cell-based or functional assay
row,Binder,IC50 (µg/ml) with constrains [µg/mL]
1,B1,3.16
2,B2,2.02
3,B3,1.65
4,B4,52.4

# Biological target: HIV Env of isolate AC10.0.29 (clade B) (HIV)
# Test: cell-based or functional assay
row,Binder,IC50 (µg/ml) with constrains [µg/mL]
1,B1,0.194
2,B2,0.275
3,B3,0.074
4,B4,0.549

# Biological target: HIV Env of isolate CAAN5342.A2 (clade B) (HIV)
# Test: cell-based or functional assay
row,Binder,IC50 (µg/ml) with constrains [µg/mL]
1,B1,40.2
2,B2,73
3,B3,17.5
4,B4,> 100

# Biological target: HIV Env of isolate PVO.4 (clade B) (HIV)
# Test: cell-based or functional assay
row,Binder,IC50 (µg/ml) with constrains [µg/mL]
1,B1,2.95
2,B2,1.39
3,B3,1.93
4,B4,3.41

# Biological target: HIV Env of isolate SC422661.8 (clade B) (HIV)
# Test: cell-based or functional assay
row,Binder,IC50 (µg/ml) with constrains [µg/mL]
1,B1,1.56
2,B2,1.33
3,B3,1.33
4,B4,15.7

# Biological target: HIV Env of isolate CNE21 (clade BC) (HIV)
# Test: cell-based or functional assay
row,Binder,IC50 (µg/ml) with constrains [µg/mL]
1,B1,0.001
2,B2,0.002
3,B3,0.002
4,B4,0.003

# Biological target: HIV Env of isolate 191084B7-19 (clade A) (HIV)
# Test: cell-based or functional assay
Binder,IC50 (µg/ml) with constrains [µg/mL],IC80 (µg/ml) with constrains [µg/mL]
B1,0.001,0.003
B2,0.001,0.005
B3,0.002,0.006
B4,0.002,0.008

# Biological target: HIV Env of isolate 246FC1G (clade C) (HIV)
# Test: cell-based or functional assay
row,Binder,IC50 (µg/ml) with constrains [µg/mL]
1,B1,> 100
2,B2,> 100
3,B3,> 100
4,B4,> 100

# Biological target: HIV Env of isolate 249MB10 (clade C) (HIV)
# Test: cell-based or functional assay
row,Binder,IC50 (µg/ml) with constrains [µg/mL]
1,B1,0.032
2,B2,0.011
3,B3,0.007
4,B4,0.021

# Biological target: HIV Env of isolate Ce0682_E4 (clade C) (HIV)
# Test: cell-based or functional assay
row,Binder,IC50 (µg/ml) with constrains [µg/mL]
1,B1,0.011
2,B2,0.005
3,B3,0.005
4,B4,0.009

# Biological target: HIV Env of isolate Ce2060_G9 (clade C) (HIV)
# Test: cell-based or functional assay
row,Binder,IC50 (µg/ml) with constrains [µg/mL]
1,B1,0.018
2,B2,0.011
3,B3,0.134
4,B4,0.025

# Biological target: HIV Env of isolate ZM214M.PL15 (clade C) (HIV)
# Test: cell-based or functional assay
row,Binder,IC50 (µg/ml) with constrains [µg/mL]
1,B1,> 100
2,B2,> 100
3,B3,> 100
4,B4,> 100

# Biological target: HIV Env, isolate 1006_11_C3_1601 (HIV)
# Test: cell-based or functional assay
row,Binder,IC80 (µg/ml) with constrains [µg/mL]
1,B5,2.35

# Biological target: HIV Env, isolate 1056_10_TA11_1826 (HIV)
# Test: cell-based or functional assay
row,Binder,IC80 (µg/ml) with constrains [µg/mL]
1,B5,3.61

# Biological target: HIV Env, isolate CAAN5342.A2 (HIV)
# Test: cell-based or functional assay
row,Binder,IC80 (µg/ml) with constrains [µg/mL]
1,B5,70.1

# Biological target: HIV Env, isolate SC05_8C11_2344 (HIV)
# Test: cell-based or functional assay
row,Binder,IC80 (µg/ml) with constrains [µg/mL]
1,B5,4.25

# Biological target: HIV Env, isolate SC422661.8 (HIV)
# Test: cell-based or functional assay
row,Binder,IC80 (µg/ml) with constrains [µg/mL]
1,B5,5.33

# Biological target: HIV Env, isolate CNE58 (HIV)
# Test: cell-based or functional assay
row,Binder,IC80 (µg/ml) with constrains [µg/mL]
1,B5,0.008

# Biological target: HIV Env, isolate CAP210.2.00.E8 (HIV)
# Test: cell-based or functional assay
row,Binder,IC80 (µg/ml) with constrains [µg/mL]
1,B5,0.221

# Biological target: HIV Env, isolate Ce1172_H1 (HIV)
# Test: cell-based or functional assay
row,Binder,IC80 (µg/ml) with constrains [µg/mL]
1,B5,0.108

# Biological target: HIV Env, isolate T263-8 (HIV)
# Test: cell-based or functional assay
row,Binder,IC80 (µg/ml) with constrains [µg/mL]
1,B5,0.06

# Biological target: HIV Env, isolate Du172.17 (HIV)
# Test: cell-based or functional assay
row,Binder,IC80 (µg/ml) with constrains [µg/mL]
1,B5,3.46

# Biological target: HIV Env, isolate HIV-0013095-2.11 (HIV)
# Test: cell-based or functional assay
row,Binder,IC80 (µg/ml) with constrains [µg/mL]
1,B5,> 100

# Biological target: HIV Env, isolate ZM214M.PL15 (HIV)
# Test: cell-based or functional assay
row,Binder,IC80 (µg/ml) with constrains [µg/mL]
1,B5,> 100

# Biological target: HIV Env, isolate 3817.v2.c59 (HIV)
# Test: cell-based or functional assay
row,Binder,IC80 (µg/ml) with constrains [µg/mL]
1,B5,0.64

# Biological target: HIV Env, isolate P1981_C5_3 (HIV)
# Test: cell-based or functional assay
row,Binder,IC80 (µg/ml) with constrains [µg/mL]
1,B5,0.585

# Biological target: HIV Env, isolate X2088_C9 (HIV)
# Test: cell-based or functional assay
row,Binder,IC80 (µg/ml) with constrains [µg/mL]
1,B5,> 100

# Biological target: HIV Env, isolate 6240_08_TA5_4622 (HIV)
# Test: cell-based or functional assay
row,Binder,IC80 (µg/ml) with constrains [µg/mL]
1,B5,6.6
